Laboratory results taken from patent publication EP4786492A1.

Legend:
[1] = molecular target: human DLL3 endogenously expressed on SHP77 and NCI-H82 cells (human) (UniProt Q9NYJ7); test: FACS SHP77 cells, 0.00128 nM
[2] = molecular target: human DLL3 endogenously expressed on SHP77 and NCI-H82 cells (human) (UniProt Q9NYJ7); test: FACS SHP77 cells, 20 nM
[3] = molecular target: human DLL3 endogenously expressed on SHP77 and NCI-H82 cells (human) (UniProt Q9NYJ7); test: FACS SHP77 cells, 0.8 nM
[4] = molecular target: human DLL3 endogenously expressed on SHP77 and NCI-H82 cells (human) (UniProt Q9NYJ7); test: FACS SHP77 cells, 100 nM
[5] = molecular target: human DLL3 endogenously expressed on SHP77 and NCI-H82 cells (human) (UniProt Q9NYJ7); test: FACS SHP77 cells, 0.032 nM
[6] = molecular target: human DLL3 endogenously expressed on SHP77 and NCI-H82 cells (human) (UniProt Q9NYJ7); test: FACS SHP77 cells, 0.16 nM
[7] = molecular target: human DLL3 endogenously expressed on SHP77 and NCI-H82 cells (human) (UniProt Q9NYJ7); test: FACS SHP77 cells, 0.0064 nM
[8] = molecular target: human DLL3 endogenously expressed on SHP77 and NCI-H82 cells (human) (UniProt Q9NYJ7); test: FACS SHP77 cells, 4 nM

Chain of human DLL3 endogenously expressed on SHP77 and NCI-H82 cells (human) (Q9NYJ7 27-618): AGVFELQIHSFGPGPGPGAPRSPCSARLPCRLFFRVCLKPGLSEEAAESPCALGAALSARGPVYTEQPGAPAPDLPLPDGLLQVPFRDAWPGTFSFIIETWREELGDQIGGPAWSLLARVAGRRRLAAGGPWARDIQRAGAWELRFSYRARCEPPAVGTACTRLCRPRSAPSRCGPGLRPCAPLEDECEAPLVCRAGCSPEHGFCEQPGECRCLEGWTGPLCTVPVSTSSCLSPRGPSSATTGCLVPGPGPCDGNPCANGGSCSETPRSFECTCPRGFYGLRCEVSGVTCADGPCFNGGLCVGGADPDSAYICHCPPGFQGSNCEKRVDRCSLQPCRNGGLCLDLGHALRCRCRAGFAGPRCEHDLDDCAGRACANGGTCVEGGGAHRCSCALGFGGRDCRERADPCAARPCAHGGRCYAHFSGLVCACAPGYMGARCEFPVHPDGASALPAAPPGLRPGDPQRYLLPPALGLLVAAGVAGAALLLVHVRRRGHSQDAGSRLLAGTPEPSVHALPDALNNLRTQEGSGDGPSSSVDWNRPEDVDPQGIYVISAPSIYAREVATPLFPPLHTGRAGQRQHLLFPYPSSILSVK

MFI [1] [MFI] | MFI [2] [MFI] | MFI [3] [MFI] | MFI [4] [MFI] | MFI [5] [MFI] | MFI [6] [MFI] | MFI [7] [MFI] | MFI [8] [MFI] | Binder
96 | 653 | 502 | 790 | 202 | 391 | 121 | 546 | mab016 scFv-hFc (Fc fusion, not shown: small tags and cut ends; a dimerising Fc or GST) scFv (part 1 of 2): DIVMTQSQKFMSTTIGDRVSITCKASQNVGTTVAWYQQKPGQSPNLLLYSTSNRFTGVPDRFTGSGSGTDFTLTITNMQSEDLADYFCQQYNNYPLTFGGGTKLEIK scFv (part 2 of 2): EVNLEESGGGLVQPGGSMKLSCVASGFAFSNFWMQWVRQSPEKGLEWVAQIRLKSDNYAAHYAESVKGRFTISRDDSKSSVYLQLNNLRAEDTGTYYCTQGNWVGFAYWGQGTLVTVSA
90 | 608 | 417 | 822 | 146 | 239 | 103 | 508 | mab011 scFv-hFc (Fc fusion, not shown: small tags and cut ends; a dimerising Fc or GST) scFv (part 1 of 2): DIVLTQSPATLSVTPGDSVSLSCRASQSISNNLHWYQQKSHESPRLLIKYASQSISGIPSRFSGSGSGTDFTLSINSVETEDFGMYFCQQSNSWPWTFGGGTKLEIK scFv (part 2 of 2): EVQLQQSGPELVKPGASVKISCKASGYTFTDYYMNWVKQSHGKSLEWIGDISPNYGGTNYNQKFKGKATLTVDKSSSTACMELRSLTSEDSAVYYCTRSFYYYGTGYDWYFDVWGTGTTVTVSS
96 | 829 | 461 | 1200 | 137 | 237 | 104 | 681 | mab014 scFv-hFc (Fc fusion, not shown: small tags and cut ends; a dimerising Fc or GST) scFv (part 1 of 2): DIQMTQSSSSFSVSLGDRVTITCKASEDIYNRLAWYQQKPGNTPRLLISGATSLETGVPSRFSGSGSGKDFTLSITSLQTEDVATYYCQQYWSLPWTFGGGTKLEIK scFv (part 2 of 2): EVQLHQSGPELVKPGTSVKISCKASGYTFTDYYMNWVKQSHGKSLEWIGDINPNHGDTGYNQKFTGKATLTVDKSSSTAYMELRSLTSEDSAVYYCARNFFYYGTTYGWYFDVWGTGTTVTVSS
94 | 729 | 164 | 1100 | 98 | 110 | 94 | 337 | mab012 scFv-hFc (Fc fusion, not shown: small tags and cut ends; a dimerising Fc or GST) scFv (part 1 of 2): DVLMTQTPLSLPVSLGDQASISCRSSQSIVHSDGNTYLEWYLQKPGQSPKLLIYKVSNRFSGVPDRFSGSGSGTDFTLKISRVEAEDLGFYYCFQGSHVPFTFGSGTKLEIK scFv (part 2 of 2): QVQLQQSGPELVKPGASVKISCKASGYTFTDYYIHWVKQRPGQGLEWIGWTLPGSGSPYYNEKFKGKATLTVDKSSSTAYMLLSSLTSEDSAVYFCARWHYYYGSSYHFDYWGQGTTLTVSS
